Assay results as given in US8586570.

Chain of PKCθ (Q04759 whole entry): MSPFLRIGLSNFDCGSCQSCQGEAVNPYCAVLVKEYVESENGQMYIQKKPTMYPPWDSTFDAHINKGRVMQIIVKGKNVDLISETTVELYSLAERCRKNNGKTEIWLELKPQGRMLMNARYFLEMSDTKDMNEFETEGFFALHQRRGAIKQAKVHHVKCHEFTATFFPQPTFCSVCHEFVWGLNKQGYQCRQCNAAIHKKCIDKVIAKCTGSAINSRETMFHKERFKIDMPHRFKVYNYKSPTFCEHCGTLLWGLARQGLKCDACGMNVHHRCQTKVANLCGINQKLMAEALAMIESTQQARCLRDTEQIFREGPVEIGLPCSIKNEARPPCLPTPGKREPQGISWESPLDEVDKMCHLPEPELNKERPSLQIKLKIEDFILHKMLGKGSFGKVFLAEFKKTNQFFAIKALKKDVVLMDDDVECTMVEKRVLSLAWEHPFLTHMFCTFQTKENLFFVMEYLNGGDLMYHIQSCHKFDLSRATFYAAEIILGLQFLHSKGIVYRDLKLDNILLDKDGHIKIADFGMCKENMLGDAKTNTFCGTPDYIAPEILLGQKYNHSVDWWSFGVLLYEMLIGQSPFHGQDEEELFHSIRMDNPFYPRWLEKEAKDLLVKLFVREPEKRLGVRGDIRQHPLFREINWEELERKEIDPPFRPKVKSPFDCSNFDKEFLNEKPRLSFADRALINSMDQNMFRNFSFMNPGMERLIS

Substance: PKCα
- KM (PKCα-S1): 8.6 µM
- Vmax (µmol min^-1 mg^-1) (µmol min^-1 mg^-1) (PKCα-S1): 5.9
- Vmax/KM (PKCα-S1): 6200 min⁻¹ mg⁻¹
- KM (PKCα-S9): 0.093 µM
- Vmax (µmol min^-1 mg^-1) (µmol min^-1 mg^-1) (PKCα-S9): 1.8
- Vmax/KM (PKCα-S9): 160000 min⁻¹ mg⁻¹
- KM (PKCα-S10): 0.12 µM
- Vmax (µmol min^-1 mg^-1) (µmol min^-1 mg^-1) (PKCα-S10): 2.2
- Vmax/KM (PKCα-S10): 149000 min⁻¹ mg⁻¹

Substance: PKCβI
- phosphorylation activity (1 µM peptide, 2 ng kinase) (PKCα-S10): PKCβI and PKCθ are slightly more active than PKCα

Substance: PKCβII
- phosphorylation activity (1 µM peptide, 2 ng kinase) (PKCα-S10): PKCβII and PKCγ have comparable activities to that of PKCα

Substance: PKCγ
- phosphorylation activity (1 µM peptide, 2 ng kinase) (PKCα-S10): PKCβII and PKCγ have comparable activities to that of PKCα

Substance: PKCδ
- phosphorylation activity (1 µM peptide, 2 ng kinase) (PKCα-S10): no activity is observed with PKCδ, PKCµ, and PKCν

Substance: PKCε
- phosphorylation activity (1 µM peptide, 2 ng kinase) (PKCα-S10): very little activity is detected with PKCε, PKCζ, PKCη and PKCι

Substance: PKCη
- phosphorylation activity (1 µM peptide, 2 ng kinase) (PKCα-S10): very little activity is detected with PKCε, PKCζ, PKCη and PKCι

Substance: PKCθ
- phosphorylation activity (1 µM peptide, 2 ng kinase) (PKCα-S10): PKCβI and PKCθ are slightly more active than PKCα
